This note sets out measurements from patent publication US6368790 (UNIVERSITY OF TENNESSEE RESEARCH, dated 2002).

The experiment addresses T1, Rb1 tumor suppressor protein (human, UniProt P06400 2-928).
T1 construct: Native protein from K562 lysate; also called pRb1; hypophosphorylated form of Rb1
T1 sequence (looked up): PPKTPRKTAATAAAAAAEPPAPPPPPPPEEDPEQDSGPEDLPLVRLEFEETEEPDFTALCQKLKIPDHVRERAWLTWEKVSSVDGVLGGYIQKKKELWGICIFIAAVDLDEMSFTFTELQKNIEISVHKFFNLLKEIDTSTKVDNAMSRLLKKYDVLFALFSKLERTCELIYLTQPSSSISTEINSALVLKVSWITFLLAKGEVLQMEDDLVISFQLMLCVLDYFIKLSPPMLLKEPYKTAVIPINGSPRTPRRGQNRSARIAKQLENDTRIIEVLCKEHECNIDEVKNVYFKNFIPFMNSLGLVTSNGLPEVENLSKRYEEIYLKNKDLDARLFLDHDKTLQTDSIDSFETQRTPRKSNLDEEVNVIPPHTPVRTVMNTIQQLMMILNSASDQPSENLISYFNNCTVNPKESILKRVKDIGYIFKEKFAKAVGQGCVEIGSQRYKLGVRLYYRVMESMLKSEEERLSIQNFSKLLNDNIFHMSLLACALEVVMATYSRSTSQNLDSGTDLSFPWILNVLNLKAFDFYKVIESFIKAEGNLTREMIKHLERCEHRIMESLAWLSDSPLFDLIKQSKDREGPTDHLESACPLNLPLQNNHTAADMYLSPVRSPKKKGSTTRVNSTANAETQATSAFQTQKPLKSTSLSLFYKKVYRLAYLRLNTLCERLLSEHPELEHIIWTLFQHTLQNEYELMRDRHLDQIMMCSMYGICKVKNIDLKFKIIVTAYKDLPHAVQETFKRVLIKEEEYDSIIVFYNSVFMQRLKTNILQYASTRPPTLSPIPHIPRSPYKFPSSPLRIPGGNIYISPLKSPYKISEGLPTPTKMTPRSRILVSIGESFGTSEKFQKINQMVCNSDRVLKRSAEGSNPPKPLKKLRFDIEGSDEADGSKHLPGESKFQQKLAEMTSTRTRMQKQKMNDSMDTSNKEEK
Put plainly: GST pull-down from K562 lysate, Western blot with anti-Rb1. An excerpt:
As precipitation controls, aliquots of the K562 lysate were immunoprecipitated with anti-Rb1 antibody IF8 or normal rabbit sera. Bound proteins were separated by electrophoresis in a 7% SDS-polyacrylamide gel and transferred to a nitrocellulose membrane. An aliquot of the K-562 crude lysate was included as a positive control for Western analysis. Proteins were visualized by probing the blot with anti-Rb1 antibodies IF-8 or C15. […] Bound proteins were separated by electrophoresis in a 7% SDS-polyacrylamide gel and transferred to a nitrocellulose membrane. Proteins were visualized by probing the blot with anti-Rb1 antibodies IF8 or C15.
Glutathione S-transferase (GST)-P2P fusion proteins were expressed and recovered on glutathione-sepharose beads as described above. Whole-cell lysates of K562 cells (1 ×10^7 cells/sample) were rocked with the beads for 1 hour at 4° C. and then washed five times with NETN buffer. The beads were then boiled in 1× SDS loading buffer and the proteins separated on SDS-polyacrylamide gels and transferred to nitrocellulose membranes. Competition experiments were performed by adding an excess of the 6X-His E1a fusion protein to the cellular lysates prior to the addition of the GST-P2P fusion proteins. The Rb1 protein was visualized by immunoblotting using anti-Rb1 antibodies IF8 or C15 (Santa Cruz Biotechnology, Santa Cruz, Calif.). These antibodies were also used to immunoprecipitate native Rb1 from the cellular lysates to serve as a positive control following the manufacturers' protocol.
On the technique in general: Immunoblotting shows a protein as a band on a membrane.

B1: GST-P2P (1-332) fusion protein (other, not shown: a dimerising Fc or GST)
chain: MMEVKDPNMKGAMLTNTGKYAIPTIDAEAYAIGKKEKPPFLPEEPSSSSEEDDPIPAELLCLICKDIMTDAVVIPCCGNSSCDECIRTTLLESDKHTCPTCHQNDVSPDALIANKFLRQAVNNFKNETGYTKRLRKQLPPFLFLVPPPRPLSQRNLQPRSRSPILRQQDPVVFRYTVSPTCSDTKTAGSCSDSGTLSRLPAPSISSLTSNQSSLAPPVSGNPSSAPAPVPDITATVSISVHSEKSDGPFRDSDNKLLPAAALTSEHSKGASSIAITALMEEKGVPGTSPWNSIFVGQSLLHGQLIPTTGPVRINAARPGGGRPGWEHSNKLG
B1: the binding result is “no binding”.

B2: GST-P2P (918-1095) fusion protein (other, not shown: a dimerising Fc or GST)
chain: RPRSLRKINYLIAREKNEREKRKKSVDKDFESSSMKISKVEGTEIVKPSPKRKMEGDVEKLERTPEKDKIASSTTPAKKIKLNRETGKKIGNAENASTTKEPSEKLESTSSKIKQEKVKGKAKRKVAGSEGSSSTLVDYTSTSSTGGSPVRKSEEKTDTKRTVIKTMEEYNNDNTAPA
In the case of B2, the binding result is reported as “no binding”.

B3: GST-P2P (494-688) fusion protein (other, not shown: a dimerising Fc or GST)
chain: AQHIHALTLSPSAAHTLDLLHDHPHPPEEAEARSAMIVHMPDLMDIAHARSRSPPYRRYRSRSRSPPEFRGQSPTKRNVPREEKEREYFNRYREVPPPYDIKAYYGRSVDFRDPFEKERYREWERKYREWYEKYYKGYAVGAQPRPSANREDFSPERLLPLNIRNSPFTRGRREDYAAGQSHRNRNLGGNYPEKL
notes: also called GST-P2P (484-688)
As to B3, the binding result was “no binding”.
